Source: the supplement of paper PMC10126150
± gives the standard deviation of the averaged measurements.

System: ATP
Assay: switch fluorescence ratio, 500 uM ATP over buffer (Cy3 cluster intensity, sum of 5 cycles each) (fold (ratio)); higher = stronger signal-on switching upon ATP binding; sequences stand for … in TCGTCGGCAGCGTCAGATGTGTATAAGAGACAGTTTTTTTTTTTTTTTTTTTTTTTTT…TC
Settings: aptamer strand: ATP DNA aptamer (quencher-CACCTGGGGGAGTATTGCGGAGGAAGG + anchor), 100 nM annealed; ATP concentration: 500 uM
How it was run: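 For every switch-domain sequence, the fluorescence ratio is the mean of per-cluster values, each being summed target-cycle Cy3 intensity over summed buffer-cycle Cy3 intensity. Clusters outside 100-1000 RFU were excluded. On a modified Illumina MiSeq flow-cell, the Cy3-labelled switching-strand clusters were annealed to 100 nM quencher-labelled ATP aptamer, imaged in selection buffer and then after 15 min with 500 uM ATP at 22 °C. Five such cycles were run, with NaOH stripping and re-annealing between them.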
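Also: ATP exposure 15 min at 22 °C before imaging.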

Sequence | switch fluorescence ratio
TGGGGTGCCA | 0.9795 ± 0.0071
TGGGGTGCTC | 0.998 ± 0.056
TGGGGTGGGT | 1 ± 0.039
TGGGGTTA | 0.98448 ± 0.00037
TGGGGTTGAC | 0.9697 ± 0.0034
TGGGGTTGGG | 1 ± 0.044
TGGGGTTGTG | 0.987 ± 0.031
TGGGGTTTTT | 0.984 ± 0.026
TGGGTAAAGC | 1.03 ± 0.017
TGGGTAACGG | 0.999 ± 0.0039
TGGGTAATAT | 1.032 ± 0.0077
TGGGTACACG | 1 ± 0.0019
TGGGTAGGCT | 0.996 ± 0.035
TGGGTATAAT | 1.014 ± 0.0096
TGGGTATAT | 1.01 ± 0.011
TGGGTATGTG | 0.972 ± 0.038
TGGGTATTAG | 0.992 ± 0.054
TGGGTATTGT | 1.02 ± 0.047
TGGGTCAAAG | 0.9881 ± 0.0088
TGGGTCCATA | 0.95611 ± 0.00081
TGGGTCGGCT | 1.06 ± 0.1
TGGGTCGGGA | 0.982 ± 0.031

Sequence | switch fluorescence ratio
TGGGTCTGAT | 0.9865 ± 0.0031
TGGGTGAATT | 0.98 ± 0.017
TGGGTGCTGA | 0.954 ± 0.052
TGGGTGGACA | 1.02 ± 0.08
TGGGTGGGAC | 1.04 ± 0.036
TGGGTGGGCT | 0.975 ± 0.011
TGGGTGGGGA | 1 ± 0.036
TGGGTGGTGC | 0.965 ± 0.011
TGGGTGGTTG | 1.02 ± 0.035
TGGGTGTAGG | 1.007 ± 0.004
TGGGTTAATT | 0.989 ± 0.026
TGGGTTACGG | 0.983 ± 0.036
TGGGTTAGCC | 1.01 ± 0.038
TGGGTTCACT | 1.02 ± 0.017
TGGGTTCGGA | 0.985 ± 0.023
TGGGTTGACG | 0.998 ± 0.037
TGGGTTGAGG | 0.997 ± 0.016
TGGGTTGCTG | 1.05 ± 0.066
TGGGTTTGTC | 0.96 ± 0.049
TGGGTTTTAT | 0.9954 ± 0.0094
TGGGTTTTGA | 1.01 ± 0.033
TGGGTTTTGG | 0.997 ± 0.052

Sequence | switch fluorescence ratio
TGGGTTTTTT | 1.01 ± 0.048
TGGTAAAACT | 1.06 ± 0.034
TGGTAAATCG | 1.03 ± 0.038
TGGTAAATGT | 0.97 ± 0.013
TGGTAACGCG | 1 ± 0.014
TGGTAAGGGG | 1.12 ± 0.25
TGGTAATAGG | 1.0108 ± 0.00095
TGGTACACGT | 0.989 ± 0.014
TGGTACATCA | 0.973 ± 0.054
TGGTACATTA | 1.34 ± 0.46
TGGTACCACT | 0.996 ± 0.014
TGGTACGGGA | 0.999 ± 0.043
TGGTACTTGT | 1.01 ± 0.027
TGGTAGAGTG | 0.987 ± 0.0027
TGGTAGGGTA | 1.03 ± 0.034
TGGTAGGGTT | 0.969 ± 0.028
TGGTAGGTA | 0.987 ± 0.013
TGGTAGTGCT | 1.01 ± 0.018
TGGTAGTTTG | 0.9951 ± 0.0039
TGGTATAACG | 0.964 ± 0.025
TGGTATGGTT | 0.996 ± 0.011
TGGTATTTAT | 1.012 ± 0.0072

Sequence | switch fluorescence ratio
TGGTATTTTA | 0.982 ± 0.028
TGGTCAAATC | 1 ± 0.051
TGGTCAGAGT | 1.01 ± 0.023
TGGTCCTAGT | 0.975 ± 0.017
TGGTCGCAGC | 1.01 ± 0.018
TGGTCTCTTT | 1 ± 0.039
TGGTCTTAGA | 1.01 ± 0.012
TGGTCTTGTA | 1.04 ± 0.021
TGGTGAAAAG | 0.97 ± 0.059
TGGTGACTGA | 0.981 ± 0.011
TGGTGAGGGG | 1.12 ± 0.24
TGGTGAGTTT | 0.984 ± 0.019
TGGTGATAGT | 0.965 ± 0.035
TGGTGATGGG | 0.9922 ± 0.0093
TGGTGCAGGA | 0.9776 ± 0.0092
TGGTGCAGGG | 0.984 ± 0.015
TGGTGCATGG | 1.03 ± 0.024
TGGTGCCGGT | 1.01 ± 0.041
TGGTGCGCCC | 1.033 ± 0.0058
